Data from patent publication US20160264649A1.

Columns and labels:
Assay in all cases: cell-based or functional assay
[1] = target: HIV-1 TRJ0.58 (Acute) Env on pseudovirus (HIV-1)
[2] = target: HIV-1 92UG001 Env (HIV-1)
[3] = target: HIV-1 MGRM-G-014 Env (HIV-1)
[4] = target: HIV-1 MGRM-C-019 Env on pseudovirus (HIV-1)
[5] = target: HIV-1 MGRM-C-014 Env on pseudovirus (HIV-1)
[6] = target: HIV-1 98IN022 Env on pseudovirus (HIV-1)
[7] = target: HIV-1 94UG103 Env (HIV-1)
[8] = target: HIV-1 MGRM-G-009 Env (HIV-1)
[9] = target: HIV-1 MGRM-C-023 Env on pseudovirus (HIV-1)
[10] = target: HIV-1 MGRM-C-006 Env on pseudovirus (HIV-1)
[11] = target: HIV-1 MGRM-AG-003 Env (HIV-1)
[12] = target: HIV-1 MGRM-Chronic-B-008 Env on pseudovirus (HIV-1)
[13] = target: HIV-1 JRCSF Env (HIV-1) (UniProt P20871)
[14] = target: HIV-1 92BR020 Env (HIV-1)
[15] = target: HIV-1 MGRM-Chronic-B-001 Env on pseudovirus (HIV-1)
[16] = target: HIV-1 MGRM-Chronic-B-004 Env on pseudovirus (HIV-1)
[17] = target: HIV-1 92UG005 Env (HIV-1)
[18] = target: HIV-1 MGRM-F1-015 Env (HIV-1)
[19] = target: HIV-1 MGRM-C-001 Env on pseudovirus (HIV-1)
[20] = target: HIV-1 MGRM-D-021 Env (HIV-1)
[21] = target: HIV-1 APV_17 Env on pseudovirus (HIV-1)
[22] = target: HIV-1 MGRM-AG-002 Env (HIV-1)
[23] = target: HIV-1 MGRM-F1-014 Env (HIV-1)
[24] = target: HIV-1 MGRM-D-029 Env (HIV-1)
[25] = target: HIV-1 MGRM-F1-022 Env (HIV-1)
[26] = target: HIV-1 APV-17 Env (HIV-1)
[27] = target: HIV-1 MGRM-D-004 Env (HIV-1)
[28] = target: HIV-1 MGRM-C-015 Env on pseudovirus (HIV-1)
[29] = target: HIV-1 6535.3 (Acute) Env on pseudovirus (HIV-1)
[30] = target: HIV-1 MGRM-G-013 Env (HIV-1)
[31] = target: HIV-1 MGRM-C-002 Env on pseudovirus (HIV-1)
[32] = target: HIV-1 MGRM-D-011 Env (HIV-1)
[33] = target: HIV-1 CMU02 Env (HIV-1)
[34] = target: HIV-1 MGRM-AE-006 Env (HIV-1)
[35] = target: HIV-1 APV-13 Env (HIV-1)
[36] = target: HIV-1 MGRM-Chronic-B-018 Env on pseudovirus (HIV-1)
[37] = target: HIV-1 IAVI-C18 Env (HIV-1)
[38] = target: HIV-1 92UG046 Env (HIV-1)
[39] = target: HIV-1 MGRM-AE-008 Env (HIV-1)
[40] = target: HIV-1 MGRM-AG-011 Env (HIV-1)
[41] = target: HIV-1 MGRM-G-028 Env (HIV-1)
[42] = target: HIV-1 MGRM-Chronic-B-024 Env on pseudovirus (HIV-1)
[43] = target: HIV-1 MGRM-AE-005 Env (HIV-1)
[44] = target: HIV-1 MGRM-D-005 Env (HIV-1)
[45] = target: HIV-1 MGRM-G-004 Env (HIV-1)
[46] = target: HIV-1 MGRM-F1-008 Env (HIV-1)
[47] = target: HIV-1 QH0692.42 (Acute) Env on pseudovirus (HIV-1)
[48] = target: HIV-1 MGRM-G-027 Env (HIV-1)
[49] = target: HIV-1 MGRM-G-011 Env (HIV-1)
[50] = target: HIV-1 MGRM-Chronic-B-020 Env on pseudovirus (HIV-1)
[51] = target: HIV-1 MGRM-F1-010 Env (HIV-1)

2G12 (antibody)
IC50 [1]: > 50 mg/L
IC50 (µg/ml), pseudovirus neutralization [2]: > 50 µg/mL
IC50 (µg/ml), pseudovirus neutralization [3]: > 50 µg/mL
IC50 [4]: > 50 mg/L
IC50 [5]: > 50 mg/L
IC50 [6]: > 50 mg/L
neutralization IC50 [7]: > 50 mg/L
neutralization IC90 [7]: > 50 mg/L
IC50 (µg/ml), pseudovirus neutralization [8]: > 50 µg/mL
IC50 [9]: > 50 mg/L
IC50 [10]: > 50 mg/L
IC50 (µg/ml), pseudovirus neutralization [11]: > 50 µg/mL
IC50 [12]: 0.55 mg/L
neutralization IC50 [13]: 0.66 mg/L
neutralization IC90 [13]: 5.38 mg/L
neutralization IC50 [14]: 2.26 mg/L
neutralization IC90 [14]: 24.1 mg/L
IC50 [15]: 0.08 mg/L
IC50 [16]: 8.65 mg/L
IC50 (µg/ml), pseudovirus neutralization [17]: > 50 µg/mL
neutralization IC50 [17]: > 50 mg/L
neutralization IC90 [17]: > 50 mg/L
IC50 (pseudovirus neutralization) [18]: > 50 mg/L
IC50 [19]: 2.93 mg/L
IC50 (µg/ml), pseudovirus neutralization [20]: 23 µg/mL
IC50 [21]: > 50 mg/L
IC50 (µg/ml), pseudovirus neutralization [22]: 0.54 µg/mL
IC50 (pseudovirus neutralization) [23]: > 50 mg/L
IC50 (µg/ml), pseudovirus neutralization [24]: > 50 µg/mL
IC50 (pseudovirus neutralization) [25]: > 50 mg/L
neutralization IC50 [26]: > 50 mg/L
IC50 (µg/ml), pseudovirus neutralization [27]: > 50 µg/mL
IC50 [28]: 1.75 mg/L
IC50 [29]: 3.85 mg/L
IC50 (µg/ml), pseudovirus neutralization [30]: > 50 µg/mL
IC50 [31]: > 50 mg/L
IC50 (µg/ml), pseudovirus neutralization [32]: 1.5 µg/mL
IC50 (µg/ml), pseudovirus neutralization [33]: > 50 µg/mL
neutralization IC50 [33]: > 50 mg/L
neutralization IC90 [33]: > 50 mg/L
IC50 (µg/ml), pseudovirus neutralization [34]: > 50 µg/mL
neutralization IC50 [35]: 23.9 mg/L
IC50 [36]: > 50 mg/L
neutralization IC50 [37]: > 50 mg/L
neutralization IC90 [37]: > 50 mg/L
IC50 (µg/ml), pseudovirus neutralization [38]: > 50 µg/mL
IC50 (µg/ml), pseudovirus neutralization [39]: > 50 µg/mL
IC50 (µg/ml), pseudovirus neutralization [40]: > 50 µg/mL
IC50 (µg/ml), pseudovirus neutralization [41]: 28.2 µg/mL
IC50 [42]: > 50 mg/L
IC50 (µg/ml), pseudovirus neutralization [43]: > 50 µg/mL
IC50 (µg/ml), pseudovirus neutralization [44]: 25.7 µg/mL
IC50 (µg/ml), pseudovirus neutralization [45]: > 50 µg/mL
IC50 (pseudovirus neutralization) [46]: > 50 mg/L
IC50 [47]: 4.39 mg/L
IC50 (µg/ml), pseudovirus neutralization [48]: > 50 µg/mL
IC50 (µg/ml), pseudovirus neutralization [49]: > 50 µg/mL
IC50 [50]: 0.2 mg/L

1496_C09 (PG9) (TCN-109) (antibody)
IC50 [1]: 0.43 mg/L
IC50 (µg/ml), pseudovirus neutralization [2]: 41.8 µg/mL
IC50 (µg/ml), pseudovirus neutralization [3]: 6.32 µg/mL
IC50 [4]: 0.01 mg/L
IC50 [5]: 0.64 mg/L
IC50 [6]: 0.006 mg/L
neutralization IC50 [7]: 0.173 mg/L
neutralization IC90 [7]: 3.37 mg/L
IC50 (µg/ml), pseudovirus neutralization [8]: 4.9 µg/mL
IC50 [9]: 0.51 mg/L
IC50 [10]: 0.23 mg/L
IC50 (µg/ml), pseudovirus neutralization [11]: 9.71 µg/mL
IC50 [12]: 6.66 mg/L
neutralization IC50 [13]: < 0.0025 mg/L
neutralization IC90 [13]: < 0.0025 mg/L
IC50 [21]: 14.6 mg/L
IC50 (µg/ml), pseudovirus neutralization [22]: 0.04 µg/mL
IC50 (pseudovirus neutralization) [23]: 0.01 mg/L
IC50 (pseudovirus neutralization) [25]: 0.06 mg/L
neutralization IC50 [26]: 26.4 mg/L
IC50 (µg/ml), pseudovirus neutralization [27]: 0.03 µg/mL
IC50 [28]: 0.5 mg/L
IC50 [29]: 0.22 mg/L
IC50 (µg/ml), pseudovirus neutralization [32]: 0.06 µg/mL
IC50 (µg/ml), pseudovirus neutralization [33]: 7.69 µg/mL
IC50 (µg/ml), pseudovirus neutralization [34]: 0.05 µg/mL
IC50 [36]: 0.16 mg/L
neutralization IC50 [37]: 0.0535 mg/L
neutralization IC90 [37]: 0.866 mg/L
IC50 (µg/ml), pseudovirus neutralization [38]: 0.64 µg/mL
IC50 (µg/ml), pseudovirus neutralization [39]: 10.6 µg/mL
IC50 (µg/ml), pseudovirus neutralization [40]: 0.01 µg/mL
IC50 [42]: 0.18 mg/L
IC50 (µg/ml), pseudovirus neutralization [43]: 0.16 µg/mL
IC50 (µg/ml), pseudovirus neutralization [44]: 0.59 µg/mL
IC50 (µg/ml), pseudovirus neutralization [48]: 0.01 µg/mL
IC50 (pseudovirus neutralization) [51]: 0.03 mg/L
IC50 (µg/ml), pseudovirus neutralization [49]: 0.19 µg/mL
